In publication PMC11957191:

Key:
[1] = target: myristoylated human Arf1 (myrArf1), GTP-bound form at a membrane surface (human) (UniProt P84077); test: not stated; binding test of the K391A mutant shown in Fig. SI5; method not given
[2] = target: myristoylated human Arf1 (myrArf1), GTP-bound form at a membrane surface (human) (UniProt P84077)
[3] = target: myrArf1 with Glu54 mutated to Ala (human) (UniProt P84077)
[4] = target: myristoylated human Arf1 (myrArf1), GTP-bound form at a membrane surface (human) (UniProt P84077); remark: listed apart in the source

Sequence of myristoylated human Arf1 (myrArf1), GTP-bound form at a membrane surface (human) (P84077 whole entry): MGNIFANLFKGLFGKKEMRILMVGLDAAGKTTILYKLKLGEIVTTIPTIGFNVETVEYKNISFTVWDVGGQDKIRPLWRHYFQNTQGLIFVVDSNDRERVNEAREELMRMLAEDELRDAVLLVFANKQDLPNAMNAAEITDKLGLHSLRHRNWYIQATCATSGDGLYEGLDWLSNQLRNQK
Sequence of ASAP1 PZA with His405 mutated to Glu (Q9QWY8 other isoform, or with tags, fused parts or gaps, change not shown): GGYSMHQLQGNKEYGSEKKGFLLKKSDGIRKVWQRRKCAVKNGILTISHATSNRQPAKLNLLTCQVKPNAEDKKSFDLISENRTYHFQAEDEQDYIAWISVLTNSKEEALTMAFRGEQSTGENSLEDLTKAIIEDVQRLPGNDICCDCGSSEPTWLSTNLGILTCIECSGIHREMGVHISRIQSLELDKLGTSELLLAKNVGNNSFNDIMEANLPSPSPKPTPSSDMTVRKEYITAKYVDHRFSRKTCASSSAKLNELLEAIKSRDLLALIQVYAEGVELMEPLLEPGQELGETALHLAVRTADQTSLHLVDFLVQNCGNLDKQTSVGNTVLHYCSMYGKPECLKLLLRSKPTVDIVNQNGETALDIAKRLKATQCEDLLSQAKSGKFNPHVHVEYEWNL
Sequence of ASAP1 PZA with Lys391 mutated to Ala (Q9QWY8 other isoform, or with tags, fused parts or gaps, change not shown): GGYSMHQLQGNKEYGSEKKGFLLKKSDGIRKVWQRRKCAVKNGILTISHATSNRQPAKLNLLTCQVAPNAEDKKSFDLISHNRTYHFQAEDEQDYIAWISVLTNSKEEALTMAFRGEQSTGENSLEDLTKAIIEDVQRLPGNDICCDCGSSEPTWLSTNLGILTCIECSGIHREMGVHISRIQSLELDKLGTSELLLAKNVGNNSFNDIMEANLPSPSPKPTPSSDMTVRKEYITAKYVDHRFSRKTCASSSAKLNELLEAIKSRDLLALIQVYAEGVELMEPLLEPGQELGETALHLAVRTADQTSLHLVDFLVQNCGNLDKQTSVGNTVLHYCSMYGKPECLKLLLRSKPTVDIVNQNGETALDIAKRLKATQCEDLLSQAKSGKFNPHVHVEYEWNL
Sequence of ΔN14PZA, ASAP1 PZA without residues 325–338 (Q9QWY8 339-724, stated change not applied): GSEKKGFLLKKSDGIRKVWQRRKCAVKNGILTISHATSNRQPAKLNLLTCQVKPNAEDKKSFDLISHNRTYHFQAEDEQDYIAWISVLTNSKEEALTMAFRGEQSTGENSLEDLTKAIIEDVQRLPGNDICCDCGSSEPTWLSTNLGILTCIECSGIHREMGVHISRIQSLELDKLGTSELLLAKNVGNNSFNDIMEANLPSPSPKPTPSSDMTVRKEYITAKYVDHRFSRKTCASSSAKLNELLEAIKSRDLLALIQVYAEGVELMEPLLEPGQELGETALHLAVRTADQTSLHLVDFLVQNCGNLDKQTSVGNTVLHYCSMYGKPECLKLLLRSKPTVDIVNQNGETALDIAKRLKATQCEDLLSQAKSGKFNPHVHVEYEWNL
Sequence of myrArf1 with Glu54 mutated to Ala (human) (P84077 other isoform, or with tags, fused parts or gaps, change not shown): as the sequence (P84077 whole entry) above, with E54A counted along it
Sequence of wt PZA, [325–724]ASAP1 (PH domain, Arf GAP zinc-binding domain and ankyrin repeats) (Q9QWY8 325-724): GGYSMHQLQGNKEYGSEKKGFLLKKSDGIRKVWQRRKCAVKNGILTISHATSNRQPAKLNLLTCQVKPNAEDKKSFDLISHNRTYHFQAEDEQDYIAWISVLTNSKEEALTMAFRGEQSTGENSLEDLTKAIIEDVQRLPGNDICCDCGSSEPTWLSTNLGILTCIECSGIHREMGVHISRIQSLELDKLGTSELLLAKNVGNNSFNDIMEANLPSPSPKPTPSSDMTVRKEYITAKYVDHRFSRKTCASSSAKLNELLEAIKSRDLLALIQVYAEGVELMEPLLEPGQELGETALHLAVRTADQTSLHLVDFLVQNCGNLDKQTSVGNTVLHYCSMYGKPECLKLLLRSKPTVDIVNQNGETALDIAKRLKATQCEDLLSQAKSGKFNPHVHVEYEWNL
Sequence of ASAP1 PZA with Phe438 mutated to Ala (Q9QWY8 other isoform, or with tags, fused parts or gaps, change not shown): as the sequence (Q9QWY8 325-724) above, with F114A counted along it

ArfGAP activity (C50 of PZA for 50% GTP hydrolysis in 3 min), fold reduction against wild type [2] [fold]	Substance	also measured
	ASAP1 PH domain with Lys391 mutated to Ala (from UniProt Q9QWY8 325-451) (domain or fragment)	fold reduction of binding against wild type [1]: 2 fold
5	ASAP1 PZA with His405 mutated to Glu (from UniProt Q9QWY8 325-724) (domain or fragment)	
100	ASAP1 PZA with Lys391 mutated to Ala (from UniProt Q9QWY8 325-724) (domain or fragment)	
15	ASAP1 PZA with Phe438 mutated to Ala (from UniProt Q9QWY8 325-724) (domain or fragment)	
	wt PZA, [325–724]ASAP1 (PH domain, Arf GAP zinc-binding domain and ankyrin repeats) (from UniProt Q9QWY8 325-724) (domain or fragment)	ArfGAP activity (C50 of PZA for 50% GTP hydrolysis in 3 min), fold reduction against wild type [3]: 70 fold
	ΔN14PZA, ASAP1 PZA without residues 325–338 (from UniProt Q9QWY8 339-724) (domain or fragment)	GAP activity on myrArf1·GTP relative to wt PZA (fold of wt PZA) [4]: < 0.01
